Laboratory results from US20180009899A1 (CORVUS PHARMACEUTICALS, published 2018).

T1: Cellular CD73 on MDA-MB-231 human breast cancer cells (human, UniProt P21589 27-549)
T1 construct: whole, on cells; Endogenous CD73 on MDA-MB-231 cells; also called 5'-nucleotidase; ecto-5'-nucleotidase
T1 sequence (looked up): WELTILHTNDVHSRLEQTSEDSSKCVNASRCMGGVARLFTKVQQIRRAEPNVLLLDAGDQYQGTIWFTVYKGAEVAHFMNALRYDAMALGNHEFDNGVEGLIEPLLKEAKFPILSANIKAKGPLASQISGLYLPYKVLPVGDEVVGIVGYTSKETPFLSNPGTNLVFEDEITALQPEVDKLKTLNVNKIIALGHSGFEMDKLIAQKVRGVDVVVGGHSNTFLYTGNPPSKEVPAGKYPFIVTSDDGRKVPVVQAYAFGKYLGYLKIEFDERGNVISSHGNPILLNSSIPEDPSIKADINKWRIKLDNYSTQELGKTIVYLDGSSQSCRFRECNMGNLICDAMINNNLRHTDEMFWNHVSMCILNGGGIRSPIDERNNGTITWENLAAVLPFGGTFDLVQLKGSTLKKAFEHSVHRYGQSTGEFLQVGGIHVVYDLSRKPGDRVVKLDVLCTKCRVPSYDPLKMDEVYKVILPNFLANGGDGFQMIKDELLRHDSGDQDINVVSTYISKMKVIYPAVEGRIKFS


These binders were tested against T1, Cellular CD73 on MDA-MB-231 human … (assay: flow cytometry on MDA-MB-231 cells, PE anti-human secondary).

Row | binding result | Binder
1 | binds | CPX-006 (glycosylated) (antibody, human IgG1, kappa, N297Q, V domains shown, N-linked glycosylation on CDR L1 (NXS motif at Kabat 27A-27C), Humanized anti-CD73 antibody with the CDRs of mouse 1E9; also called BAP094-hum07; glycosylated antibody) VH: QVQLVQSGAEVEKPGASVKVSCKASGYTFTSYWITWVRQAPGQGLEWMGDIYPGSGNTNYNEKFKTRVTITADKSTSTAYMELSSLRSEDTAVYYCAKEGGLTTEDYALDYWGQGTLVTVSS VL: EIVLTQSPATLSLSPGERATLSCRASKNVSTSGYSYMHWYQQKPGQAPRLLIYLASNLESGIPPRFSGSGYGTDFTLTINNIESEDAAYYFCQHSRELPFTFGQGTKVEIKR
2 | binds | CPX-008 (antibody, V domains shown, also called aglycosylated antibody) VH: QVQLVQSGAEVEKPGASVKVSCKASGYTFTSYWITWVRQAPGQGLEWMGDIYPGSGNTNYNEKFKTRVTITADKSTSTAYMELSSLRSEDTAVYYCAKEGGLTTEDYALDYWGQGTLVTV VL: EIVLTQSPATLSLSPGERATLSCRASKQVSTSGYSYMHWYQQKPGQAPRLLIYLASNLESGIPPRFSGSGYGTDFTLTINNIESEDAAYYFCQHSRELPFTFGQGTKVEIK
3 | binds | CPX-012 (antibody, V domains shown) VH: QVQLVQSGAEVEKPGASVKVSCKASGYTFTSYWITWVRQAPGQGLEWMGDIYPGSGNTNYNEKFKTRVTITADKSTSTAYMELSSLRSEDTAVYYCAKEGGLTTEDYALDYWGQGTLVTV VL: AIQLTQSPSSLSASVGDRVTITCRASKQVSTSGYSYMHWYQQKPGQAPRLLIYLASNLESGVPSRFSGSGSGTDFTFTISSLEAEDAATYYCQHSRELPFTFGQGTKVEIK
4 | binds | CPX-011 (antibody, V domains shown, A at Kabat 27C of CDR L1, made in the CPX-006 light chain) VH: QVQLVQSGAEVEKPGASVKVSCKASGYTFTSYWITWVRQAPGQGLEWMGDIYPGSGNTNYNEKFKTRVTITADKSTSTAYMELSSLRSEDTAVYYCAKEGGLTTEDYALDYWGQGTLVTV VL: EIVLTQSPATLSLSPGERATLSCRASKNVATSGYSYMHWYQQKPGQAPRLLIYLASNLESGIPPRFSGSGYGTDFTLTINNIESEDAAYYFCQHSRELPFTFGQGTKVEIK
5 | binds | CPX-014 (antibody, V domains shown, D at Kabat 27A of CDR L1, made in the CPX-006 light chain) VH: QVQLVQSGAEVEKPGASVKVSCKASGYTFTSYWITWVRQAPGQGLEWMGDIYPGSGNTNYNEKFKTRVTITADKSTSTAYMELSSLRSEDTAVYYCAKEGGLTTEDYALDYWGQGTLVTV VL: EIVLTQSPATLSLSPGERATLSCRASKDVSTSGYSYMHWYQQKPGQAPRLLIYLASNLESGIPPRFSGSGYGTDFTLTINNIESEDAAYYFCQHSRELPFTFGQGTKVEIK
6 | binds | CPX-009 (antibody, V domains shown, A at Kabat 27A of CDR L1, made in the CPX-006 light chain) VH: QVQLVQSGAEVEKPGASVKVSCKASGYTFTSYWITWVRQAPGQGLEWMGDIYPGSGNTNYNEKFKTRVTITADKSTSTAYMELSSLRSEDTAVYYCAKEGGLTTEDYALDYWGQGTLVTV VL: EIVLTQSPATLSLSPGERATLSCRASKAVSTSGYSYMHWYQQKPGQAPRLLIYLASNLESGIPPRFSGSGYGTDFTLTINNIESEDAAYYFCQHSRELPFTFGQGTKVEIK
